Results published in patent US20260049148.

Target: internally quenched peptide probe (MCA)-Gly-Ser-Ala-Ile-Ala-Leu-Tyr-Gly-Gly-Ser-Lys (DNP)-D-Arg with CM AIALY (SEQ ID NO: 5)

B1: human recombinant MMP2 (R&D Systems, catalog No: 902-MP) (protein)
chain: YNFFPRKPKWDKNQITYRIIGYTPDLDPETVDDAFARAFQVWSDVTPLRFSRIHDGEADIMINFGRWEHGDGYPFDGKDGLLAHAFAPGTGVGGDSHFDDDELWTLGEGQVVRVKYGNADGEYCKFPFLFNGKEYNSCTDTGRSDGFLWCSTTYNFEKDGKYGFCPHEALFTMGGNAEGQPCKFPFRFQGTSYDSCTTEGRTDGYRWCGTTEDYDRDKKYGFCPETAMSTVGGNSEGAPCVFPFTFLGNKYESCTSAGRSDGKMWCATTANYDDDRKWGFCPDQGYSLFLVAAHEFGHAMGLEHSQDPGALMAPIYTYTKNFRLSQDDIKGIQELYGASPDIDLGTGPTPTLGPVTPEICKQDIVFDGIAQIRGEIFFFKDRFIWRTVTPRDKPMGPLLVATFWPELPEKIDAVYEAPQEEKAVFFAGNEYWIYSASTLERGYPKPLTSLGLPPDVQRVDAAFNWSKNKKTYIFAGDKFWRYNEVKKKMDPGFPKLIADAWNAIPDNLDAVVDLQGGGHSYFFKGAYYLKLENQSLKSVKFGSIKSDWLGC
Probe Cleavage (kcat/KM): 39000 M⁻¹ s⁻¹ | Probe Cleavage (pM/s): 135 pM/s
